Drawing on PMC9482650, “Quantitative fragmentomics allow affinity mapping of interactomes” (Nature Communications, 2022), this text covers pKd for six molecules.

In general, pKd refers to the negative decadic logarithm of the Kd, by convention in mol/L.

Assay in all cases: holdup assay
Common to all, as to set-up: key: below the threshold = too weak to quantify, mostly under pKd 3.1 to 4

Experiment [1] deals with T1, APBA1_2, Q02410.
T1 sequence (Q02410 742-832, limits assumed, looked up): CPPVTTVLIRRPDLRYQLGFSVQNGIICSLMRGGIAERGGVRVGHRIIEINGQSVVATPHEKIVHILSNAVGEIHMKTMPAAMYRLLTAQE

Experiment [2] has as its target T2, APBA2_1, Q99767.
T2 sequence (Q99767 563-664, limits assumed, looked up): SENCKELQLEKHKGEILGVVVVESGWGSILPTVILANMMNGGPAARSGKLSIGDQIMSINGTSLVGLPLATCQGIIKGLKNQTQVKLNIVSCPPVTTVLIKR

The target of experiment [3] is DLG1_2, Q12959.
DLG1_2, Q12959, sequence (Q12959 314-412): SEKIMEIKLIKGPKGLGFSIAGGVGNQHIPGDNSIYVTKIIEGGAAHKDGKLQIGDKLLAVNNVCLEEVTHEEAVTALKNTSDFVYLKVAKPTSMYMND
Experiment [4] concerns the target GRID2IP_2, A4D2P6.
In experiment [5] the target is MAGI2_4, Q86UL8.
MAGI2_4, Q86UL8, sequence (Q86UL8 772-865): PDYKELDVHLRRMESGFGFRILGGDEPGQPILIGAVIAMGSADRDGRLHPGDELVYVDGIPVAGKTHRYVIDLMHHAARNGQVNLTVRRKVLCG
Experiment [6] has as its target T3, PDZD2_2, O15018.
T3 sequence (O15018 329-429, limits assumed, looked up): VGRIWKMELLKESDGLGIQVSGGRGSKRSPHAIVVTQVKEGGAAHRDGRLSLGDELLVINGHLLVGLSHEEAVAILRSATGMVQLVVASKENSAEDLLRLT

Experiment [7] deals with SNX27, Q96L92.
Experiment [8] has as its target AHNAK1, Q09666. Conditions: plain residues with an end cap or a label only (N-terminal biotin on a linker: ttds).
The target in experiment [9] is T4, DFNB31_2, Q9P202.
T4 sequence (Q9P202 274-371, limits assumed, looked up): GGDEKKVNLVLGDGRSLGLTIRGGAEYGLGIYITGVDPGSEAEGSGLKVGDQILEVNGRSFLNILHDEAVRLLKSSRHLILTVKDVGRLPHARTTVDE
The note with it: plain residues with an end cap or a label only (N-terminal biotin on a linker: ttds).

For experiment [10], the target named is T5, DFNB31_3, Q9P202.
T5 sequence (Q9P202 811-907, limits assumed, looked up): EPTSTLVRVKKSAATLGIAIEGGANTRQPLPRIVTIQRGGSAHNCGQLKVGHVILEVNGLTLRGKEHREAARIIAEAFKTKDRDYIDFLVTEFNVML
Conditions: plain residues with an end cap or a label only (N-terminal biotin on a linker: ttds).

For experiment [11], the target named is T6, DLG3_3, Q92796.
T6 sequence (Q92796 374-475, limits assumed, looked up): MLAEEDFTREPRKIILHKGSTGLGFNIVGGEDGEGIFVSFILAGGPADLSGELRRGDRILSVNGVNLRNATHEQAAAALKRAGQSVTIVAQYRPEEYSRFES
Conditions: plain residues with an end cap or a label only (N-terminal biotin on a linker: ttds).

Experiment [12] deals with T7, GRIP1_2, Q9Y3R0.
T7 sequence (Q9Y3R0 145-248, limits assumed, looked up): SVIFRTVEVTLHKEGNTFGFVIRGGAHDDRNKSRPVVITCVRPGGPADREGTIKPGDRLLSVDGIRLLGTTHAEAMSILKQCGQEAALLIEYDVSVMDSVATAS
Conditions: plain residues with an end cap or a label only (N-terminal biotin on a linker: ttds).

Experiment [13] addresses T8, HTRA3, P83110.
T8 sequence (P83110 354-453, limits assumed, looked up): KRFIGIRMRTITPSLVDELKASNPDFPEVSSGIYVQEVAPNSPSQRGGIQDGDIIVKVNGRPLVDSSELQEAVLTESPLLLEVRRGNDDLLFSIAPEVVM
Conditions: plain residues with an end cap or a label only (N-terminal biotin on a linker: ttds).

Experiment [14] concerns the target Inadl_2, Q8NI35. The note with it: plain residues with an end cap or a label only (N-terminal biotin on a linker: ttds).
The target of experiment [15] is Inadl_3, Q8NI35. Conditions: plain residues with an end cap or a label only (N-terminal biotin on a linker: ttds).
Inadl_3, Q8NI35, sequence (Q8NI35 359-469): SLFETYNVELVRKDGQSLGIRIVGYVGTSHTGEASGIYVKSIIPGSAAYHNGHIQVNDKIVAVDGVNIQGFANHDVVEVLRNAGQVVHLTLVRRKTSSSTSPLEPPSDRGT
The target in experiment [16] is Inadl_8, Q8NI35.
Inadl_8, Q8NI35, sequence (Q8NI35 1425-1530): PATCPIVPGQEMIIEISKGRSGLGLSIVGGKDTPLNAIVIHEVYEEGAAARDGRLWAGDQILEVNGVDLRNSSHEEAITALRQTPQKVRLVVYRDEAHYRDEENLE
Experiment [17] addresses T9, LIN7B, Q9HAP6.
T9 sequence (Q9HAP6 88-185, limits assumed, looked up): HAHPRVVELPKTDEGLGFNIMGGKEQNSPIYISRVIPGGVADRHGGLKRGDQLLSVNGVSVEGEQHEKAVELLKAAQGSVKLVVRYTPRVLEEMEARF
The note with it: plain residues with an end cap or a label only (N-terminal biotin on a linker: ttds).

The target in experiment [18] is MAGI1_1, Q96QZ7. The note with it: plain residues with an end cap or a label only (N-terminal biotin on a linker: ttds).
MAGI1_1, Q96QZ7, sequence (Q96QZ7 1-106): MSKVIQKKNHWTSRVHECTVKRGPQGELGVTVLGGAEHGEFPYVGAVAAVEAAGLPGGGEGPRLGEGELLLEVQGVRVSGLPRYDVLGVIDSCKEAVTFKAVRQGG
In experiment [19] the target is T10, PDZD7_3, Q9H5P4.
T10 sequence (Q9H5P4 857-944, limits assumed, looked up): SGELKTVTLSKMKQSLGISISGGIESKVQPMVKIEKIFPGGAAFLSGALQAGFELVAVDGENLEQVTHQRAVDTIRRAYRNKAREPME

Experiment [20] addresses T11, RADIL, Q96JH8.
T11 sequence (Q96JH8 971-1071, limits assumed, looked up): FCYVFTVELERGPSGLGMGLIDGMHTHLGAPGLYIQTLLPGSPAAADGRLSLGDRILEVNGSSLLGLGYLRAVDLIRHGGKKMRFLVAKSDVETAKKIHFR
The note with it: plain residues with an end cap or a label only (N-terminal biotin on a linker: ttds).

Experiment [21] has as its target T12, SIPA1L2, Q9P2F8.
T12 sequence (Q9P2F8 945-1036, limits assumed, looked up): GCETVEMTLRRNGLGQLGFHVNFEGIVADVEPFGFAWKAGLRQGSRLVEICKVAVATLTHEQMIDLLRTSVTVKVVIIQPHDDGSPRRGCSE
The note with it: plain residues with an end cap or a label only (N-terminal biotin on a linker: ttds).

Experiment [22] has as its target T13, SYNJ2BP, P57105.
T13 sequence (P57105 8-110, limits assumed, looked up): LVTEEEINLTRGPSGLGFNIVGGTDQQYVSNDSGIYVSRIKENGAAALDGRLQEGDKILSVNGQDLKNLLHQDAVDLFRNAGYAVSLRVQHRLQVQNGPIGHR
The note with it: plain residues with an end cap or a label only (N-terminal biotin on a linker: ttds).

Experiment [23] deals with T14, TJP3_3, O95049.
T14 sequence (O95049 375-456, limits assumed, looked up): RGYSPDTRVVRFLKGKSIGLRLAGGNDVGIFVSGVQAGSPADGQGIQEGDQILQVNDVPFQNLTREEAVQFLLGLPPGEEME
Conditions: plain residues with an end cap or a label only (N-terminal biotin on a linker: ttds).

The mark [24] stands for this setting: plain residues with an end cap or a label only (N-terminal biotin on a linker: ado-ado).
The mark [25] stands for this setting: plain residues with an end cap or a label only (N-terminal biotin on a linker: ttds).

AHNAK1, Q09666, sequence (Q09666 4-100): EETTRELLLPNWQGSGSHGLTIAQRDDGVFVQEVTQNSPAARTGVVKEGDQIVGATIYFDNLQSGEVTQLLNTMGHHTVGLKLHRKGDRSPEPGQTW
Inadl_2, Q8NI35, sequence (Q8NI35 238-335): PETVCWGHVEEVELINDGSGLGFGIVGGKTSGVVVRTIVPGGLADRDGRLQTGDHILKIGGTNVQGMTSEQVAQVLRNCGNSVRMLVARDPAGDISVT
GRID2IP_2, A4D2P6, sequence (A4D2P6 272-370): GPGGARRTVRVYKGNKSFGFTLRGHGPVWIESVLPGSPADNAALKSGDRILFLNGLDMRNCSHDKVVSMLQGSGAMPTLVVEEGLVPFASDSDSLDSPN

In the case of KSRVAFFEEL [NF2, P35240], the negative-log Kd (pKd) in experiment [1] (setting [24]) was determined as 3.75; in experiment [2] (setting [24]), 3.54; in experiment [3] (setting [24]), 3.5; in [4] (setting [24]), 3.59; in experiment [5] (setting [24]), 3.83; in [6] (setting [24]), 3.71. The same molecule came in with a pKd in [7] (setting [24]) of 3.7.
As for SRPQRTQTQV [HPV67-E6, A4U7F2], the pKd entry in [8] is “below the threshold”; in experiment [1] (setting [25]) it was 3.54; in [2] (setting [25]), “below the threshold”; in [9] it was “below the threshold”; in experiment [10], “below the threshold”; in experiment [3] (setting [25]), 5.01. Also, the pKd in experiment [11] was 4.3; in experiment [4] (setting [25]), “below the threshold”; in experiment [12], “below the threshold”; in [13] it was “below the threshold”; in [14], “below the threshold”; in [15] it was “below the threshold”. Also, the pKd entry in experiment [16] (setting [25]) was “below the threshold”; in experiment [17], “below the threshold”; in experiment [18], “below the threshold”; in [5] (setting [25]), 4.14; in experiment [6] (setting [25]), 3.77; in experiment [19] (setting [25]), 3.65. In addition, the pKd result in experiment [20] is “below the threshold”; in [21], “below the threshold”; in experiment [7] (setting [25]), 3.98; in experiment [22], 4.4; in experiment [23], “below the threshold”.
SVWLRKETRV [CYSLTR2, Q9NS75]: the pKd result in experiment [8] is “below the threshold”; in experiment [1] (setting [25]), 3.84; in experiment [2] (setting [25]), “below the threshold”; in [9] it was 3.73; in experiment [10], “below the threshold”; in [3] (setting [25]), 5.78. The pKd is 5.34 in experiment [11]; 3.45 in experiment [4] (setting [25]); “below the threshold” in [12]; “below the threshold” in experiment [13]; “below the threshold” in experiment [14]; “below the threshold” in experiment [15]. The pKd in experiment [16] (setting [25]) was 4.55; in experiment [17], 4.35; in experiment [18], “below the threshold”; in experiment [5] (setting [25]), 4.06; in experiment [6] (setting [25]) it was 3.8; in experiment [19] (setting [25]), 4.86. For the same molecule, the pKd in experiment [20] was 3.7; in experiment [21], “below the threshold”; in experiment [7] (setting [25]) it was 4.95; in experiment [22], 5.38; in experiment [23] it was 3.37.
In the case of ERKLSSESQV [LRP4, O75096], the pKd entry in [8] was “below the threshold”; in experiment [1] (setting [25]), “below the threshold”; in [2] (setting [25]), “below the threshold”; in [9], “below the threshold”; in [10], “below the threshold”; in [3] (setting [25]), 4.75. The pKd in [11] was 3.51; in experiment [4] (setting [25]), “below the threshold”; in experiment [12] it was 3.7; in experiment [13] it was “below the threshold”; in experiment [14], “below the threshold”; in experiment [15], “below the threshold”. The pKd entry is “below the threshold” in experiment [16] (setting [25]); “below the threshold” in experiment [17]; “below the threshold” in [18]; 3.83 in experiment [5] (setting [25]); 4.39 in experiment [6] (setting [25]); “below the threshold” in experiment [19] (setting [25]). Besides, the pKd entry in [20] was “below the threshold”; in experiment [21] it was “below the threshold”; in [7] (setting [25]) it was 4.75; in experiment [22], 4.78; in [23] it was “below the threshold”.
For KRPEMTSSSV [MUC3B, MUC3A, Q02505;Q9H195], the pKd in experiment [3] (setting [24]) is 4.06; in experiment [16] (setting [24]), 4.63; in experiment [6] (setting [24]) it was 5.11; in experiment [19] (setting [24]) it was “below the threshold”; in [7] (setting [24]) it was 5.03.
As for RSLEEEESQL [GRASP, Q7Z6J2], the pKd was 3.93 in experiment [8]; 3.65 in [1] (setting [25]); “below the threshold” in [2] (setting [25]); 3.83 in experiment [9]; 3.74 in [10]; “below the threshold” in experiment [3] (setting [25]). Besides, the pKd is 3.81 in [11]; 4.33 in experiment [4] (setting [25]); “below the threshold” in experiment [12]; “below the threshold” in experiment [13]; “below the threshold” in [14]; “below the threshold” in experiment [15]. In addition, the pKd is 3.71 in [16] (setting [25]); 3.7 in experiment [17]; “below the threshold” in [18]; 3.7 in experiment [5] (setting [25]); 3.98 in [6] (setting [25]); 3.98 in [19] (setting [25]). For the same molecule, the pKd is 3.53 in experiment [20]; “below the threshold” in experiment [21]; 5.69 in experiment [7] (setting [25]); 3.86 in experiment [22]; 3.65 in experiment [23].
